Residue numbers refer to the chain shown, from its start. In names and notes the source's numbering stands. Like-named read-outs stand apart in the source and are kept apart here. Each block holds one binder with its values, some of them ahead of it.
Key:
[1] = molecular target: T1, monomeric huBDCA2 ectodomain (human, UniProt Q8WTT0 45-213); experiment: Octet, mAb from conditioned medium on anti-human Fc tips, monomeric huBDCA2 in solution
T1 construct: Prepared by proteolytic cleavage of the purified muIgG2a Fc-huBDCA2 fusion protein (pEAG2423); also called human BDCA2 ectodomain; human BDCA2 ECD
T1 sequence: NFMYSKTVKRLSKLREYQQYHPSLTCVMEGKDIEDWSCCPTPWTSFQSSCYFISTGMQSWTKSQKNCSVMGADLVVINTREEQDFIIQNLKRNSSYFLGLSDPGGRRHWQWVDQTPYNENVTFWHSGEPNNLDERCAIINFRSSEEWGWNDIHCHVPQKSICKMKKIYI
Experimental: (§1) Backmutation to the unpaired cysteine, i.e., S95C, was constructed by site-directed mutagenesis producing plasmid pYL749. Variants S95T, S95A, and S95V were constructed by site-directed mutagenesis producing plasmids pYL750, pYL751, and pYL752, respectively. The full-length light chain cDNA sequences in the resultant plasmids were confirmed by DNA sequencing. […] Conditioned medium was harvested at 2 days post-transfection. […] Conditioned medium containing the C95 variant mAbs was assayed by Octet for binding to human BDCA2 ectodomain. Antibodies from conditioned medium from transiently transfected cells were bound to anti-human Fc tips, then monomeric huBDCA2 was flowed over the Octet tips, to examine binding and dissociation.

[2] = molecular target: T2, cynomolgus monkey BDCA2 (full-length, cell surface, E73 SNP form) (cynomolgus monkey, UniProt Q8WTT0 1-213 (human entry)); experiment: direct binding FACS, conditioned medium on CHO cells co-expressing cynomolgus BDCA2 and FcεRIγ; column C (midpoint) of the printed 4-P fit, X in ng/ml; A 3.13, B 0.874, D 71.9, R^2 0.998
T2 construct: also called cyno BDCA2; surface cynomolgus monkey BDCA2
T2 chain: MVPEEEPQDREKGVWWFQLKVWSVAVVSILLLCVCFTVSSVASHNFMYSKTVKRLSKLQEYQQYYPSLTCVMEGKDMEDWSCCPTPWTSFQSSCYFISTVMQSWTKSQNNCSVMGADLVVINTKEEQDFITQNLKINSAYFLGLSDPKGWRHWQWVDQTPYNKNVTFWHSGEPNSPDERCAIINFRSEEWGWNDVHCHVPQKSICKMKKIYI
Experimental: (§2) Conditioned medium was assayed by direct binding FACS on stably transfected DG44 CHO cells co-expressing full-length BDCA2 and FcεRIγ cDNAs (human or cynomolgus monkey), (relevant expression vectors are human BDCA2/FcεRIγ: pEAG2456, cyno BDCA2/FcεRIγ: pEAG2668).

[3] = molecular target: T3, human BDCA2 (full-length, cell surface) (human, UniProt Q8WTT0 1-213); experiment: direct binding FACS, conditioned medium on CHO cells co-expressing human BDCA2 and FcεRIγ; column C (midpoint) of the printed 4-P fit, X in ng/ml; A 8.32, B 1, D 102, R^2 0.999
T3 construct: also called huBDCA2; surface human BDCA2
T3 sequence: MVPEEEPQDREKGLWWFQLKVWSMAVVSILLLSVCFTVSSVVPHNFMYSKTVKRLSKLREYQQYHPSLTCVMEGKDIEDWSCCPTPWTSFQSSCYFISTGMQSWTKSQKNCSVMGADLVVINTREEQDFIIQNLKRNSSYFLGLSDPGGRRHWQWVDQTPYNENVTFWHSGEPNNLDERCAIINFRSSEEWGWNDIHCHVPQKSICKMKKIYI
Experimental: as §2

[4] = molecular target: T1, monomeric huBDCA2 ectodomain; experiment: Octet, mAb from conditioned medium on anti-human Fc tips, monomeric huBDCA2 in solution; remark: listed apart in the source
Experimental: The monomeric huBDCA2 ectodomain was prepared by proteolytic cleavage from the purified muIgG2a Fc-huBDCA2 fusion protein (relevant plasmid: pEAG2423). Antibodies from conditioned medium from transiently transfected cells were bound to anti-human Fc tips, and then monomeric huBDCA2 was flowed over the Octet tips, to examine binding and dissociation.

[5] = molecular target: T2, cynomolgus monkey BDCA2 (full-length, …); experiment: direct binding FACS, conditioned medium on CHO cells co-expressing cynomolgus BDCA2 and FcεRIγ; column C (midpoint) of the printed 4-P fit, X in ng/ml; A 2.43, B 0.789, D 70.7, R^2 0.999
Experimental: as §2

[6] = molecular target: T3, human BDCA2 (full-length, cell surface); experiment: direct binding FACS, conditioned medium on CHO cells co-expressing human BDCA2 and FcεRIγ; column C (midpoint) of the printed 4-P fit, X in ng/ml; A 5.67, B 0.857, D 96.6, R^2 0.999
Experimental: as §2

[7] = molecular target: T1, monomeric huBDCA2 ectodomain; experiment: Octet, monomeric huBDCA2
Experimental: as §1

[8] = molecular target: T2, cynomolgus monkey BDCA2 (full-length, …); experiment: direct binding FACS, conditioned medium on CHO cells co-expressing cynomolgus BDCA2 and FcεRIγ; column C (midpoint) of the printed 4-P fit, X in ng/ml; A 1.62, B 0.79, D 41.8, R^2 1; the fit is extrapolated: the highest point drawn is at about 4000 ng/ml with MFI about 16, no plateau
Experimental: as §2

[9] = molecular target: T3, human BDCA2 (full-length, cell surface); experiment: direct binding FACS, conditioned medium on CHO cells co-expressing human BDCA2 and FcεRIγ; column C (midpoint) of the printed 4-P fit, X in ng/ml; A 3.85, B 0.622, D 97.2, R^2 0.999
Experimental: as §2

[10] = molecular target: T2, cynomolgus monkey BDCA2 (full-length, …); experiment: direct binding FACS, conditioned medium on CHO cells co-expressing cynomolgus BDCA2 and FcεRIγ; column C (midpoint) of the printed 4-P fit, X in ng/ml; A 4.01, B 1.09, D 68.9, R^2 0.998
Experimental: as §2

[11] = molecular target: T3, human BDCA2 (full-length, cell surface); experiment: direct binding FACS, conditioned medium on CHO cells co-expressing human BDCA2 and FcεRIγ; column C (midpoint) of the printed 4-P fit, X in ng/ml; A 6.16, B 0.839, D 115, R^2 0.998
Experimental: as §2

B1: hu24F4 H4/L1 (C95S) (antibody, V domains shown)
VH: DVQLVESGGGLVKPGGSLRLSCAASGFTFSTYTMSWVRQAPGKGLEWVATISPGDSFGYYYPDSVQGRFTISRDNAKNSLYLQMNSLRAEDTAVYYCTRDIYYNYGAWFAYWGQGTLVTVSS
VL: DIQLTQSPSSLSASVGDRVTITCKASQSVDYDGDSYMNWYQQKPGKAPKLLIYAASTLESGVPSRFSGSGSGTDFTLTISSLQPEDFATYYCQQSNEDPRTFGQGTKVEIK
notes: Human IgG1/kappa; also called 24F4-H4/L1 (YL740/YL746); 24F4S
Kd [1]: 548 pM
koff [1]: 0.000398 s⁻¹
kon [1]: 727000 M⁻¹ s⁻¹
EC50 [2]: 0.21 µg/mL
EC50 [3]: 0.2 µg/mL
Kd [4]: 744 pM
koff [4]: 0.000408 s⁻¹
kon [4]: 549000 M⁻¹ s⁻¹

B4: hu24F4 H3/L1 (antibody, V domains shown)
VH: B1 VH with D1E, A49S, T98A
VL: B1 VL
notes: Humanized variant, human IgG1/kappa, conditioned medium of 293E cells; also called H3 series of hu24F4
EC50 [8]: 7.67 µg/mL
EC50 [9]: 0.984 µg/mL
Kd [4]: 13000 pM
koff [4]: 0.00586 s⁻¹
kon [4]: 452000 M⁻¹ s⁻¹

Now from value to binder:

EC50 [5]: 0.501 µg/mL
EC50 [6]: 0.359 µg/mL
B2: hu24F4 H6/L1 (antibody, V domains shown)
VH: B1 VH with P53G, D55N, S56N, F57Y, Y60S, Q66K
VL: B1 VL
notes: Humanized variant, human IgG1/kappa, conditioned medium of 293E cells; also called H6 series of hu24F4

binding result [7]: binds
B3: hu24F4 H5/L1 C95T (antibody, human IgG1, V domains shown)
VH: B1 VH with E6Q, S86R, Q114R
VL: B1 VL with S95T
notes: Heavy chain pYL747 with light chain pYL750; human IgG1/kappa; also called H5/L1 C95T variant

EC50 [10]: 0.228 µg/mL
EC50 [11]: 0.309 µg/mL
B5: hu24F4 H5/L1 (antibody, V domains shown)
VH: B1 VH with E6Q, S86R, Q114R
VL: B1 VL
notes: Humanized variant, human IgG1/kappa, conditioned medium of 293E cells; also called H5 series of hu24F4
